The target of test [1] is human KDR1 to 3 domain (human) (UniProt P35968). As to the kind of experiment: BLI (Octet), KDR1 to 3 domains on biosensor, scFv added, off-rate screening. (In general: In BLI a coated tip is dipped into the sample, and binding shifts an interference pattern.)
Test [2] shares this target. In words: BLI (Octet), antibody on biosensor, human KDR1 to 3 as analyte.
Test [3] has as its target T1, human KDR1 to 3 domain (human, UniProt P35968 20-327, limits assumed).
T1 construct: domain: KDR1 to 3 domain; The panning antigen was KDR1 to 3 domain-Fc; Treated as one molecule; also called KDR1 to 3 domains; KDR D1 to D3
In words: BLI (Octet), KDR1 to 3 domains on biosensor, scFv added, off-rate screening.

Test [4] deals with T1, human KDR1 to 3 domain. In words: BLI (Octet), antibody on biosensor, human KDR1 to 3 as analyte. On the procedure: The binding of the selected antibodies to the KDR1 to 3 domain was measured using the Octet system (Fortebio Inc. US).

This passage reports koff, Kd and kon results from patent US20240383989A1 (PHARMABCINE, published 2024).

Positions count from the first letter of the chain named.

As a reminder, the koff is the first-order rate constant of dissociation. A word on the Kd: it is the equilibrium constant for the complex coming apart. By kon is commonly meant a measure of how fast the partners come together. Low values mean slow association, high ones fast association.

Chain of human KDR1 to 3 domain (human) (P35968 20-327 limits assumed): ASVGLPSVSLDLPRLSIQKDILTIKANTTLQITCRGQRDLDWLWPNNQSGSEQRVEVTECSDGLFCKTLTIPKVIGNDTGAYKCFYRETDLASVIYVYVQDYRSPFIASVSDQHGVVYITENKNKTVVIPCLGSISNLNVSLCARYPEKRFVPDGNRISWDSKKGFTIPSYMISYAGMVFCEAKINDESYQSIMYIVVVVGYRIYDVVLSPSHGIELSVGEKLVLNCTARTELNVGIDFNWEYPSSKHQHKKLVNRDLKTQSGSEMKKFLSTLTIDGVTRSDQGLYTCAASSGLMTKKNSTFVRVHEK
T1 sequence (P35968 20-327 limits assumed): as above

B1: 6A6 (scFv) (scFv, from another filing, V domains shown)
VH: QMQLVQSGAEVKKPGASVKLSCKASGYTFSSYWMHWVRQAPGQRLEWMGEINPGNGHTNYNEKFKSRVTITVDKSASTAYMELSSLRSEDTAVYYCAKIWGPSLTSPFDYWGQGTLVTVSS
VL: SNFMLTQPPSVSVSPGKTARITCRGDNLGDVNVHWYQQRPGQAPVLVMYYDADRPSGIPERFSGSNSGNTATLTISGVEAGDEADYYCQVWDRTSEYVFGTGTKVTVLG
In test [1], B1 showed a koff of 0.000266 s⁻¹.

B2: 6A6 (IgG) (antibody, from another filing, V domains shown)
VH: B1 VH
VL: B1 VL
Consider B2, for which, in test [2], the Kd is 13.2 nM, the koff was 0.00168 s⁻¹ and the kon worked out at 127000 M⁻¹ s⁻¹.

B3: D4 (scFv) (scFv, part only; not given: scFv linker, domain order, tags, V domains shown, not shown: another chain or arm of the molecule; small tags and cut ends)
VH: EVQLVESGGGLVQPGGSLRLSCAASGYTFSSYWMSWVRQAPGKGLEWVSEINPGNGHTNYNEKFKSRFTISRDKSKNTLYLQMNSLRAEDTAVYYCARHWGPSLTSPFDYWGQGTLVTVSS
VL: DIQMTQSPSSLSASVGDRVTITCRADNLGDVNVHWYQQKPGKAPKLLIYYDADRPSGVPSRFSGSNSGNDATLTISSLQPEDFATYYCQAPTNNDPYTFGQGTKVEIK
On to B3, for which the koff in test [3] was determined as 0.000165 s⁻¹.

B4: LH-E7 (scFv) (scFv, V domains shown)
VH: B3 VH
VL: DIQMTQSPSSLSASVGDRVTITCRADNLGDVNVHWYQQKPGKAPKLLIYYDADRPSGVPSRFSGSNSGNDATLTISSLQPEDFATYYCQAPTRIAPYTFGQGTKVEIKR
Turning to B4, the koff in test [3] was determined as 0.000111 s⁻¹.

B5: D4 (IgG) (antibody, V domains shown)
VH: B3 VH
VL: B4 VL with R93N, I94N, A95D
notes: Converted to IgG with the pfusess-hchg1 (human IgG1) and pfuse2ss-hclk (human kappa) vectors
In test [4], B5 showed a Kd of 0.366 nM and a koff of 3.45e-05 s⁻¹.

B6: D3 (scFv) (scFv, part only; not given: scFv linker, domain order, tags, V domains shown, not shown: another chain or arm of the molecule; small tags and cut ends)
VH: B3 VH
VL: B3 VL with N93K, D95V
Molecule B6 displayed a koff in test [3] of 0.00015 s⁻¹.

B7: LHL-G1 (scFv) (scFv, V domains shown)
VH: B3 VH with H99S, W100Y, G101R, Y110F
VL: B4 VL with R93T, I94N, A95E
The molecule B7 yielded a koff in test [3] of 0.000239 s⁻¹.

B8: A5 (scFv) (scFv, part only; not given: scFv linker, domain order, tags, V domains shown, not shown: another chain or arm of the molecule; small tags and cut ends)
VH: B3 VH
VL: B3 VL with N93T, N94H, D95L
On to B8, for which the koff in test [3] was 0.000187 s⁻¹.

B9: D3 (IgG) (antibody, V domains shown)
VH: B3 VH
VL: B4 VL with R93K, I94N, A95V
notes: as for B5
Turning to B9, in test [4], the Kd turned out to be 0.773 nM, the koff was 8.67e-05 s⁻¹ and the kon was determined as 112000 M⁻¹ s⁻¹.

B10: LH-E7 (IgG) (antibody, V domains shown)
VH: B3 VH
VL: B4 VL
notes: Converted to IgG; VH was cloned into Invivogen pfusess-hchg1 (human IgG1 heavy constant) and VL into pfuse2ss-hclk (human kappa constant); also called LH-67; LH-ET
In test [4], B10 had a Kd of 1.3 nM, a koff of 6.55e-05 s⁻¹ and a kon of 50600 M⁻¹ s⁻¹.

B11: A5 (IgG) (antibody, V domains shown)
VH: B3 VH
VL: B4 VL with R93T, I94H, A95L
notes: as for B5
In test [4], B11 showed a Kd of 0.886 nM and a koff of 8.86e-05 s⁻¹.

B12: LHL-G1 (IgG) (antibody, V domains shown)
VH: B3 VH with H99S, W100Y, G101R, Y110F
VL: B4 VL with R93T, I94N, A95E
notes: as for B5
In test [4], B12 returned a koff of 0.000251 s⁻¹ and a kon of 73700 M⁻¹ s⁻¹.
